Measurements reported in the supplement of paper PMC10065799, “High-throughput profiling of sequence recognition by tyrosine kinases and SH2 domains using bacterial peptide display” (eLife, 2023).

Experiments:
Grb2 SH2 = Grb2 SH2 (UniProt P62993); experiment: SH2 binding enrichment of the phosphorylated peptide, bacterial display (enrichment ratio); higher = better substrate or ligand; peptides without Tyr show the background
c-Src SH2 = experiment: as above
SHP2-C SH2 = experiment: as above
FGFR3 = FGFR3 (UniProt P22607); experiment: phosphorylation enrichment, bacterial display (enrichment ratio); higher = better substrate or ligand; peptides without Tyr show the background
Fer (mouse) = experiment: as above
c-Src = experiment: as above
Jak2 = Jak2 (UniProt O60674); experiment: as above
Fyn = Fyn (UniProt P06241); experiment: as above
AncSZ = experiment: as above
Fes = Fes (UniProt P07332); experiment: as above
EPHB2 = EPHB2 (UniProt P29323); experiment: as above
Hck = Hck (UniProt P08631); experiment: as above
EPHB1 = EPHB1 (UniProt P54762); experiment: as above
c-Abl (mouse) = experiment: as above
FGFR1 = FGFR1 (UniProt P11362); experiment: as above
MERTK = MERTK (UniProt Q12866); experiment: as above
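For SH2 binding enrichment of the phosphorylated peptide, bacterial display in this document: peptide library displayed on the E. coli surface as eCPX fusions, selected cells deep-sequenced, score is each peptide's frequency after selection divided by its frequency in the input.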
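For phosphorylation enrichment, bacterial display in this document: 11-residue human phosphosite peptides and single-mutation variants displayed on the E. coli surface, counted by deep sequencing, each peptide's frequency after selection divided by its frequency in the unselected input library; frequency after pTyr selection over input frequency; kinase dosed for 20-30% of maximal phosphorylation in three min.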

EPHB1, sequence (P54762 whole entry, looked up): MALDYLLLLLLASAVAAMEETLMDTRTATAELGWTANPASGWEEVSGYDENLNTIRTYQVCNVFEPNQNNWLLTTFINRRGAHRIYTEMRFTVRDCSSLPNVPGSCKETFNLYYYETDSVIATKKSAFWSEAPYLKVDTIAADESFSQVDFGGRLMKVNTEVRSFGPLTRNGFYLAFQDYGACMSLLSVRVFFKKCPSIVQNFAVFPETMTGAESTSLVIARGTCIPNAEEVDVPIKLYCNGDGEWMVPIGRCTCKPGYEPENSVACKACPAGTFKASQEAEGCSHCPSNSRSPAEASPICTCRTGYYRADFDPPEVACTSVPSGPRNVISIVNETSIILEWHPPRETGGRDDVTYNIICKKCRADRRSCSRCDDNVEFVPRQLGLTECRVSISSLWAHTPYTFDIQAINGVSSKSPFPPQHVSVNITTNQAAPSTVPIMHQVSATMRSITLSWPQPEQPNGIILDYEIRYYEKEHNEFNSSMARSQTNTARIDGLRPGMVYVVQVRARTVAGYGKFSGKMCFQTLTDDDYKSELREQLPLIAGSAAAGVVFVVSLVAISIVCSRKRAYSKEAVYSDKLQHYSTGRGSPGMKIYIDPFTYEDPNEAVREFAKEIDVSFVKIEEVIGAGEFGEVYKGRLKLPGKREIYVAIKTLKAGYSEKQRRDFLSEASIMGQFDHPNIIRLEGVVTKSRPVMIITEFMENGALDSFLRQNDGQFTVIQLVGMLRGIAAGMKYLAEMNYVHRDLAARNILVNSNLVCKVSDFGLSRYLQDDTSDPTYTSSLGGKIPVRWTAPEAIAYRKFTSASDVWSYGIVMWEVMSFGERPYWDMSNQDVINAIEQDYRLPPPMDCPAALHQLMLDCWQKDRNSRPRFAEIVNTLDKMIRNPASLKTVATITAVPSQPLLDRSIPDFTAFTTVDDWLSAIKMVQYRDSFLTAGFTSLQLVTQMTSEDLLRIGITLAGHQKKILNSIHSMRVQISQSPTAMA
EPHB2, sequence (P29323 whole entry, looked up): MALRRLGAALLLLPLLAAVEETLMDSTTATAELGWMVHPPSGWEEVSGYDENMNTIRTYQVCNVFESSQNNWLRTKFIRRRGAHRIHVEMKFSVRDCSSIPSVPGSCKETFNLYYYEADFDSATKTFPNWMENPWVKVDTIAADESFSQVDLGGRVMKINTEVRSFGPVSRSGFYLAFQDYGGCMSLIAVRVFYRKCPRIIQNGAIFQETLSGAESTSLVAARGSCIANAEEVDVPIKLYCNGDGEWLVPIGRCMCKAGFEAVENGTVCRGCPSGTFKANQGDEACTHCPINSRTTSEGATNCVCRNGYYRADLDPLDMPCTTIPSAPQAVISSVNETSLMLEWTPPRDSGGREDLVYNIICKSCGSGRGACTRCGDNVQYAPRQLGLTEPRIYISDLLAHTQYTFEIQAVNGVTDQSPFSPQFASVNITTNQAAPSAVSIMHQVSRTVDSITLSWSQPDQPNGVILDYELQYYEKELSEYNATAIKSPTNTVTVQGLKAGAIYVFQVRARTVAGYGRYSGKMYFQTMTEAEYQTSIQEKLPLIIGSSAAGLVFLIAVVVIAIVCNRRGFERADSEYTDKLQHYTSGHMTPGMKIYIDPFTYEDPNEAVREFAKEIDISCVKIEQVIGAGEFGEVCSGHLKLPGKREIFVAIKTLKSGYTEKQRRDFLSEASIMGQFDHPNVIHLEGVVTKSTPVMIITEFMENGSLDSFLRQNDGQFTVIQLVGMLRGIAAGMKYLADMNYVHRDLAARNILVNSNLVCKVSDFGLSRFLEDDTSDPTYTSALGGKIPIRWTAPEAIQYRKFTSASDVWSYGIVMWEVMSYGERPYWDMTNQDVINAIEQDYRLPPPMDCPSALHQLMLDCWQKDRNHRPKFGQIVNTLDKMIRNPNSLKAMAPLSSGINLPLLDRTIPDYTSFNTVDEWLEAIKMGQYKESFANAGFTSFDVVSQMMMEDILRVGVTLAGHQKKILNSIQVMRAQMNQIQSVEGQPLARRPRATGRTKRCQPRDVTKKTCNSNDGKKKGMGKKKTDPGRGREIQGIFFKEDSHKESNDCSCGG
MERTK, sequence (Q12866 whole entry, looked up, the tested form may be a part): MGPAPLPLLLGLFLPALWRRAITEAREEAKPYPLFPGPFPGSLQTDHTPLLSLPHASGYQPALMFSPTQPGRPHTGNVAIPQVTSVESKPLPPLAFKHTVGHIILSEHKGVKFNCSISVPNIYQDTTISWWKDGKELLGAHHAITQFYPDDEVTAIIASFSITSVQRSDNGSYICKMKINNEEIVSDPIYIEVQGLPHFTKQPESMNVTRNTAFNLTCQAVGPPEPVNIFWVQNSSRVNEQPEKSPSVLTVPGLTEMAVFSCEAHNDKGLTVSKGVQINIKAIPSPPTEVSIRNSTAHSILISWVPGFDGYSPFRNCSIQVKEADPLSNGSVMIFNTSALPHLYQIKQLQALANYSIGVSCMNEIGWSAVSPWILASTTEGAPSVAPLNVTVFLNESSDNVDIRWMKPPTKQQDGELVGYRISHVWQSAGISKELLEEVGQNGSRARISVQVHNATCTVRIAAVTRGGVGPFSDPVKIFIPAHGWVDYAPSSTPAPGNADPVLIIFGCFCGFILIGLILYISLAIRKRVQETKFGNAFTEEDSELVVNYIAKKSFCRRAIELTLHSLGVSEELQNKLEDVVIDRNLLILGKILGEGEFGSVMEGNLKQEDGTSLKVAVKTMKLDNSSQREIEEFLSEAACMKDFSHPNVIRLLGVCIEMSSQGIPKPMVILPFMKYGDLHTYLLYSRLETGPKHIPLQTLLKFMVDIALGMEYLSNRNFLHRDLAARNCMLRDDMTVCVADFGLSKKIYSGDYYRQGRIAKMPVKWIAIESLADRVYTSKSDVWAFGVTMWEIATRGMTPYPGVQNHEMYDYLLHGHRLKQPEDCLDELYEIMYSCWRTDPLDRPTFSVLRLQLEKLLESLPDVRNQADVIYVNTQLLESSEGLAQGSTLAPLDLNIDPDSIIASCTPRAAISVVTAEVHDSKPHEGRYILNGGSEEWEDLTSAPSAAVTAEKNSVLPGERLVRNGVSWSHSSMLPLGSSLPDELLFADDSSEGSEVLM
Fes, sequence (P07332 whole entry, looked up): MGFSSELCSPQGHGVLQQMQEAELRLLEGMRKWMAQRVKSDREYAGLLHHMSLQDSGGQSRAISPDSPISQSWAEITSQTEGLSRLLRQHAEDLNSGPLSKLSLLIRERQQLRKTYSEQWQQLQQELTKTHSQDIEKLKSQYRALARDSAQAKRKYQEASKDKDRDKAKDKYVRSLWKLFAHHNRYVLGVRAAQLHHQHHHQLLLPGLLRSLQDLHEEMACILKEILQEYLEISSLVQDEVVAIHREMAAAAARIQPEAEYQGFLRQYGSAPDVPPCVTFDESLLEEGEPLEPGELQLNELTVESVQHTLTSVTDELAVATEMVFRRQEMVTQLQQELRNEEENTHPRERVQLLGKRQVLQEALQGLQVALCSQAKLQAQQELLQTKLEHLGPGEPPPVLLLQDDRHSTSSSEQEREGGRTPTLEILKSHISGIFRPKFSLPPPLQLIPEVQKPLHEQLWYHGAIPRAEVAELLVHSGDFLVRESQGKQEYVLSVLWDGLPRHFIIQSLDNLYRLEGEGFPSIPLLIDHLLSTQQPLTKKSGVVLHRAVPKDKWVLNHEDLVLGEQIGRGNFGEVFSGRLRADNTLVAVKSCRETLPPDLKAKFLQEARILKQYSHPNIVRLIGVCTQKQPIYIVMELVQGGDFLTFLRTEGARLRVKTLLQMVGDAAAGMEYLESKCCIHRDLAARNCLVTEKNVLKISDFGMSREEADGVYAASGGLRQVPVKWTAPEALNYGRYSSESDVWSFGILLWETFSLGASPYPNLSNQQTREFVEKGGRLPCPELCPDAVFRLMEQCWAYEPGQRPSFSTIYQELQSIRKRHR
Hck, sequence (P08631 whole entry, looked up): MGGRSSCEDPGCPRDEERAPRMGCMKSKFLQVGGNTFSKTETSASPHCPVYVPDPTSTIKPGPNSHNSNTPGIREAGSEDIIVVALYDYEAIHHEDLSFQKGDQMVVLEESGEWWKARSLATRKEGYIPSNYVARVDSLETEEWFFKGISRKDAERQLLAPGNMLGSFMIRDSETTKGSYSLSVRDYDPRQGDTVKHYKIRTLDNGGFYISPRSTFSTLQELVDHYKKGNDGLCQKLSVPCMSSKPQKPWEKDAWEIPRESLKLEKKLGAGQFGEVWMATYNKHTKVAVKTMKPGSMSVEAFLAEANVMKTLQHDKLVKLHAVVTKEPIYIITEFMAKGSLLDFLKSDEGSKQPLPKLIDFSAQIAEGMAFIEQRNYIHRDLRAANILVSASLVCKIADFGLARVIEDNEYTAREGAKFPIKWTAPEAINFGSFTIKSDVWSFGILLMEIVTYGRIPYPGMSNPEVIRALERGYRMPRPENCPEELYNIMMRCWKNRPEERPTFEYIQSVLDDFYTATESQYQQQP
Fyn, sequence (P06241 whole entry, looked up): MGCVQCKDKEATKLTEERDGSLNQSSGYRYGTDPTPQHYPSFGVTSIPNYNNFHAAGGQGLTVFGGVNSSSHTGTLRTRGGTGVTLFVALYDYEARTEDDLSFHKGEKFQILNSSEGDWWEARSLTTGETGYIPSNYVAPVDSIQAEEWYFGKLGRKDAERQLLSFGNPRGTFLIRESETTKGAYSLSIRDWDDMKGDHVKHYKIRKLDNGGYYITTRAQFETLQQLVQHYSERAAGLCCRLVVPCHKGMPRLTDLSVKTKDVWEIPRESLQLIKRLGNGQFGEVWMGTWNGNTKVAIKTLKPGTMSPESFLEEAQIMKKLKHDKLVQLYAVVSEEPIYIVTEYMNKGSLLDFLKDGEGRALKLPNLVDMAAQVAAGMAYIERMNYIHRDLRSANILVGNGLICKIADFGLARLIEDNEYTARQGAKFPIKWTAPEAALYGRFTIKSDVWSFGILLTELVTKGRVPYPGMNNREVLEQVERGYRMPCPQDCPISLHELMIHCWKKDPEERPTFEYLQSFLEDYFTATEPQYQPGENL

Sequence	SH2 binding enrichment (Grb2 SH2)	SH2 binding enrichment (c-Src SH2)	SH2 binding enrichment (SHP2-C SH2)	phosphorylation enrichment (FGFR3)	phosphorylation enrichment (Fer (mouse))	phosphorylation enrichment (c-Src)	phosphorylation enrichment (Jak2)	phosphorylation enrichment (Fyn)	phosphorylation enrichment (AncSZ)	phosphorylation enrichment (Fes)	phosphorylation enrichment (EPHB2)	phosphorylation enrichment (Hck)	phosphorylation enrichment (EPHB1)	phosphorylation enrichment (c-Abl (mouse))	phosphorylation enrichment (FGFR1)	phosphorylation enrichment (MERTK)
NYNPNYCFAGK [ALK_Y1096_D1091N]	0.868	0.55	0.878	0.642	0.597	0.564	0.856	0.57	1.26	0.879	1.27	0.433	3.98	0.803	0.563	1.1
PADSGYPAYLG [ATP6V1A_Y374]	1.11	0.614	0.62	0.892	0.798	0.592	0.823	1.05	1.18	1.51	0.468	0.735	1.77	1.14	0.755	0.417
PAGSGYPAYLG [ATP6V1A_Y374_D371G]	0.884	0.396	0.688	0.914	0.866	0.417	0.727	0.574	0.782	0.752	0.638	0.645	1.22	0.525	1.17	0.442
PDSVDYRKKGY [CTSK_Y121]	1.14	0.686	0.708	0.661	0.657	0.905	1.01	0.749	1.07	1.08	1.67	0.78	0.599	0.976	1.06	0.823
PEADKYRLTYA [FGG_Y300]	0.806	0.392	0.736	1.14	0.828	0.604	1.13	0.626	1.61	1.51	1.09	1.62	0.832	0.825	0.888	0.777
PEPTGYSAELS [EZR_Y499_A494P]	0.87	0.461	0.63	0.762	0.456	0.461	0.871	0.57	1.02	0.943	0.851	0.419	0.573	0.962	0.502	0.567

Second part, led by results:

SH2 binding enrichment (Grb2 SH2)	SH2 binding enrichment (c-Src SH2)	SH2 binding enrichment (SHP2-C SH2)	Sequence	phosphorylation enrichment (FGFR3)	phosphorylation enrichment (Fer (mouse))	phosphorylation enrichment (c-Src)	phosphorylation enrichment (Jak2)	phosphorylation enrichment (Fyn)	phosphorylation enrichment (AncSZ)	phosphorylation enrichment (Fes)	phosphorylation enrichment (EPHB2)	phosphorylation enrichment (Hck)	phosphorylation enrichment (EPHB1)	phosphorylation enrichment (c-Abl (mouse))	phosphorylation enrichment (FGFR1)	phosphorylation enrichment (MERTK)
0.978	0.557	0.831	NVVQEYERVII [NPHS2_Y131_K126N]	0.668	4.44	0.485	0.772	0.47	1.17	0.942	2.22	0.589	2.13	0.633	0.59	0.442
0.9	0.87	0.884	PAQAAYQKVVA [HBB_Y131_V127A]	0.62	0.477	0.375	0.59	0.879	0.647	0.771	0.67	0.542	0.562	0.589	0.544	0.349
